Test results: the supplement of paper PMC10065799, “High-throughput profiling of sequence recognition by tyrosine kinases and SH2 domains using bacterial peptide display” (eLife, 2023)

Molecular target: EPHB1 (UniProt P54762)
Experiment: phosphorylation enrichment, bacterial display (enrichment ratio); higher = better substrate or ligand; peptides without Tyr show the background
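Wherever SH2 binding enrichment of the phosphorylated peptide, bacterial display is given: peptide library displayed on the E. coli surface as eCPX fusions, selected cells deep-sequenced, score is each peptide's frequency after selection divided by its frequency in the input.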
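Wherever phosphorylation enrichment, bacterial display is given: 11-residue human phosphosite peptides and single-mutation variants displayed on the E. coli surface, counted by deep sequencing, each peptide's frequency after selection divided by its frequency in the unselected input library; frequency after pTyr selection over input frequency; kinase dosed for 20-30% of maximal phosphorylation in three min.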

Sequence of EPHB1 (P54762 whole entry, looked up): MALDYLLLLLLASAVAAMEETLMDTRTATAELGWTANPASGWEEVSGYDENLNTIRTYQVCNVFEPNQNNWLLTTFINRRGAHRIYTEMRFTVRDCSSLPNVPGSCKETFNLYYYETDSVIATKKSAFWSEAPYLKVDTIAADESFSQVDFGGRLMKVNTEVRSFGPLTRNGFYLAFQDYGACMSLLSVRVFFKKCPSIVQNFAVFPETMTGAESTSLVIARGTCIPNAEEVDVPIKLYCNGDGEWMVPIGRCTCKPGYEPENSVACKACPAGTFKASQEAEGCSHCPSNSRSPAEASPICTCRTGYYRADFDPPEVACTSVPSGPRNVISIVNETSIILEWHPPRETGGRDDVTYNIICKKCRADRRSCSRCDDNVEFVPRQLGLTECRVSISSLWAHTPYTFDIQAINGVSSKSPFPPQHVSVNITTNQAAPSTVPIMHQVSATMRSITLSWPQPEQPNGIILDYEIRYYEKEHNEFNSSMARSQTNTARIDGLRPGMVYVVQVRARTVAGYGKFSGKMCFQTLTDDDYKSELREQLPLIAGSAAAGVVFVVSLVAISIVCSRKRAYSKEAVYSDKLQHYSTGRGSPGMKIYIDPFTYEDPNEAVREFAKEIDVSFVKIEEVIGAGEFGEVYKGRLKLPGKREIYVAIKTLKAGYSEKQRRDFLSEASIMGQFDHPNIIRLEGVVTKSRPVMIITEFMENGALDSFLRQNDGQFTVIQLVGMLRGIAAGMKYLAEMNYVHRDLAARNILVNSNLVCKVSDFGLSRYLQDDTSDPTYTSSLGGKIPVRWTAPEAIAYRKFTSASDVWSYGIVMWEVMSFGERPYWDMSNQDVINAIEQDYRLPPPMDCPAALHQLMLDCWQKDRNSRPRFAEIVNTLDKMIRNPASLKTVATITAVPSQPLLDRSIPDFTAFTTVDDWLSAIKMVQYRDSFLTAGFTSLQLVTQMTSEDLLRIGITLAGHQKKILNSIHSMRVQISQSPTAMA

Sequence | phosphorylation enrichment
KWRGQYDVANK [BTK_Y425_I429N] | 0.381
VNTMLYEKFTY [TEK_Y1108_T1106M] | 8.2
VDLSKYITTIA [FAS_Y232] | 0.378
FEPWVYSFSYE [PRKDC_Y647] | 0.759
RPSGRYPVARR [SHANK3_Y1569] | 0.734
ISDDNYGRIRL [ARCN1_Y310_K309N] | 0.521
NFYEYYVDDPL [GCHFR_Y48_P53L] | 6.99
KSPDSYQKILF [ATM_Y1415_L1420F] | 0.468
KTNVSYCGALD [CACNB4_Y103] | 0.564
SVTCTYSPAFN [TP53_Y126_L130F] | 0.8
ERLWDCGMSSS [F8_Y1728_Y1728C] | 0.535
INSLKYAYNVS [EIF2B5_Y583_I587V] | 0.402
PYSEPYADYGG [APBA1_Y187] | 1.04
MIRSTYALGGL [CPS1_Y590_A589T] | 0.4
LEITWYPFDVE [RIPOR2_Y316] | 1.21
GRFCGYKSKHG [EPHA3_Y570] | 0.506
VSTAVYKRFPS [BEST1_Y148] | 0.348

Sequence | phosphorylation enrichment
TENAGYYFQVS | 0.78
EAIMTYVSSFY [ACTN4_Y260_K255E] | 0.617
NPQKSYFIHLY [WAS_Y83_R86H] | 0.588
VITDFYVDMKF [MPP4_Y567_YF] | 1.31
FIATQYSLCPR [LBR_Y166_R169C_YF] | 0.618
QLRPGYIPIPV [BAG3_Y93] | 0.774
FADIAYIYRHG [PAH_Y166_N167I] | 0.506
IGGHAYGDQYR [IDH1_Y135_R132G] | 0.405
CFTGKYTLPPG [HSPB1_Y142_R140G] | 0.562
VAVTKYCKEEL [ATP7B_Y1078] | 0.508
RSACTYLASHL [PLK3_Y615] | 0.534
TSSAGYRAAEG [COL6A3_Y543] | 0.505
ARQEEYSAMRD [KRAS_Y64_G60R] | 0.508
TRYDEYLEVTK [MAP1A_Y2217_H2214Y] | 0.98
PLQNTYNFNVL [SLC4A1_Y553_K551N_YF] | 0.798
RLLRGYDQFAY [HLA-C_Y137_S140F] | 0.422

Molecular target: Grb2 SH2 (UniProt P62993)
Experiment: SH2 binding enrichment of the phosphorylated peptide, bacterial display (enrichment ratio); higher = better substrate or ligand; peptides without Tyr show the background

Sequence of Grb2 SH2 (P62993 whole entry, looked up): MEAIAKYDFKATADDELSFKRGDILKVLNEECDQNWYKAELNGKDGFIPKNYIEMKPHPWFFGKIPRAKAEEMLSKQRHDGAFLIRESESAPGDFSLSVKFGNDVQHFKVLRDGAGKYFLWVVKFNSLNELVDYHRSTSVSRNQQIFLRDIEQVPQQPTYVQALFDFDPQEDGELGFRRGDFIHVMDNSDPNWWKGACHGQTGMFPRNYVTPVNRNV

Sequence | SH2 binding enrichment
KWRGQYDVANK [BTK_Y425_I429N] | 1.08
VNTMLYEKFTY [TEK_Y1108_T1106M] | 0.979
VDLSKYITTIA [FAS_Y232] | 0.881
FEPWVYSFSYE [PRKDC_Y647] | 0.767
RPSGRYPVARR [SHANK3_Y1569] | 0.541
ISDDNYGRIRL [ARCN1_Y310_K309N] | 1
NFYEYYVDDPL [GCHFR_Y48_P53L] | 0.984
KSPDSYQKILF [ATM_Y1415_L1420F] | 1.26
KTNVSYCGALD [CACNB4_Y103] | 0.9
SVTCTYSPAFN [TP53_Y126_L130F] | 0.664
ERLWDCGMSSS [F8_Y1728_Y1728C] | 1.15
INSLKYAYNVS [EIF2B5_Y583_I587V] | 1.01
PYSEPYADYGG [APBA1_Y187] | 0.675
MIRSTYALGGL [CPS1_Y590_A589T] | 0.699
LEITWYPFDVE [RIPOR2_Y316] | 0.961
GRFCGYKSKHG [EPHA3_Y570] | 1.32
VSTAVYKRFPS [BEST1_Y148] | 0.748

Sequence | SH2 binding enrichment
TENAGYYFQVS | 0.783
EAIMTYVSSFY [ACTN4_Y260_K255E] | 0.712
NPQKSYFIHLY [WAS_Y83_R86H] | 1.29
VITDFYVDMKF [MPP4_Y567_YF] | 0.864
FIATQYSLCPR [LBR_Y166_R169C_YF] | 1.02
QLRPGYIPIPV [BAG3_Y93] | 0.848
FADIAYIYRHG [PAH_Y166_N167I] | 0.936
IGGHAYGDQYR [IDH1_Y135_R132G] | 0.776
CFTGKYTLPPG [HSPB1_Y142_R140G] | 0.592
VAVTKYCKEEL [ATP7B_Y1078] | 0.813
RSACTYLASHL [PLK3_Y615] | 1.04
TSSAGYRAAEG [COL6A3_Y543] | 0.903
ARQEEYSAMRD [KRAS_Y64_G60R] | 0.824
TRYDEYLEVTK [MAP1A_Y2217_H2214Y] | 0.777
PLQNTYNFNVL [SLC4A1_Y553_K551N_YF] | 0.85
RLLRGYDQFAY [HLA-C_Y137_S140F] | 1.47

Molecular target: SHP2-C SH2
Experiment: as above

Sequence | SH2 binding enrichment
KWRGQYDVANK [BTK_Y425_I429N] | 0.957
VNTMLYEKFTY [TEK_Y1108_T1106M] | 0.872
VDLSKYITTIA [FAS_Y232] | 0.604
FEPWVYSFSYE [PRKDC_Y647] | 0.592
RPSGRYPVARR [SHANK3_Y1569] | 0.514
ISDDNYGRIRL [ARCN1_Y310_K309N] | 0.77
NFYEYYVDDPL [GCHFR_Y48_P53L] | 0.726
KSPDSYQKILF [ATM_Y1415_L1420F] | 1.75
KTNVSYCGALD [CACNB4_Y103] | 0.726
SVTCTYSPAFN [TP53_Y126_L130F] | 0.646
ERLWDCGMSSS [F8_Y1728_Y1728C] | 0.9
INSLKYAYNVS [EIF2B5_Y583_I587V] | 0.636
PYSEPYADYGG [APBA1_Y187] | 0.651
MIRSTYALGGL [CPS1_Y590_A589T] | 0.626
LEITWYPFDVE [RIPOR2_Y316] | 0.884
GRFCGYKSKHG [EPHA3_Y570] | 1.49
VSTAVYKRFPS [BEST1_Y148] | 0.647

Sequence | SH2 binding enrichment
TENAGYYFQVS | 1.04
EAIMTYVSSFY [ACTN4_Y260_K255E] | 0.672
NPQKSYFIHLY [WAS_Y83_R86H] | 1.02
VITDFYVDMKF [MPP4_Y567_YF] | 0.577
FIATQYSLCPR [LBR_Y166_R169C_YF] | 0.851
QLRPGYIPIPV [BAG3_Y93] | 0.585
FADIAYIYRHG [PAH_Y166_N167I] | 1.06
IGGHAYGDQYR [IDH1_Y135_R132G] | 0.548
CFTGKYTLPPG [HSPB1_Y142_R140G] | 0.377
VAVTKYCKEEL [ATP7B_Y1078] | 0.729
RSACTYLASHL [PLK3_Y615] | 0.498
TSSAGYRAAEG [COL6A3_Y543] | 0.653
ARQEEYSAMRD [KRAS_Y64_G60R] | 0.729
TRYDEYLEVTK [MAP1A_Y2217_H2214Y] | 0.506
PLQNTYNFNVL [SLC4A1_Y553_K551N_YF] | 1.1
RLLRGYDQFAY [HLA-C_Y137_S140F] | 1.14

Molecular target: c-Src SH2
Experiment: as above

Sequence | SH2 binding enrichment
KWRGQYDVANK [BTK_Y425_I429N] | 1.2
VNTMLYEKFTY [TEK_Y1108_T1106M] | 2.15
VDLSKYITTIA [FAS_Y232] | 0.451
FEPWVYSFSYE [PRKDC_Y647] | 0.705
RPSGRYPVARR [SHANK3_Y1569] | 0.464
ISDDNYGRIRL [ARCN1_Y310_K309N] | 0.518
NFYEYYVDDPL [GCHFR_Y48_P53L] | 0.856
KSPDSYQKILF [ATM_Y1415_L1420F] | 1.96
KTNVSYCGALD [CACNB4_Y103] | 0.551
SVTCTYSPAFN [TP53_Y126_L130F] | 0.463
ERLWDCGMSSS [F8_Y1728_Y1728C] | 0.634
INSLKYAYNVS [EIF2B5_Y583_I587V] | 0.654
PYSEPYADYGG [APBA1_Y187] | 6.47
MIRSTYALGGL [CPS1_Y590_A589T] | 0.439
LEITWYPFDVE [RIPOR2_Y316] | 0.801
GRFCGYKSKHG [EPHA3_Y570] | 1.43
VSTAVYKRFPS [BEST1_Y148] | 0.414

Sequence | SH2 binding enrichment
TENAGYYFQVS | 0.962
EAIMTYVSSFY [ACTN4_Y260_K255E] | 0.477
NPQKSYFIHLY [WAS_Y83_R86H] | 0.804
VITDFYVDMKF [MPP4_Y567_YF] | 0.607
FIATQYSLCPR [LBR_Y166_R169C_YF] | 0.687
QLRPGYIPIPV [BAG3_Y93] | 0.493
FADIAYIYRHG [PAH_Y166_N167I] | 0.695
IGGHAYGDQYR [IDH1_Y135_R132G] | 0.416
CFTGKYTLPPG [HSPB1_Y142_R140G] | 0.585
VAVTKYCKEEL [ATP7B_Y1078] | 0.53
RSACTYLASHL [PLK3_Y615] | 0.641
TSSAGYRAAEG [COL6A3_Y543] | 0.485
ARQEEYSAMRD [KRAS_Y64_G60R] | 0.804
TRYDEYLEVTK [MAP1A_Y2217_H2214Y] | 1.02
PLQNTYNFNVL [SLC4A1_Y553_K551N_YF] | 0.624
RLLRGYDQFAY [HLA-C_Y137_S140F] | 1.65
